From article PMC10315710, “Diacylglycerol kinase ζ interacts with sphingomyelin synthase 1 and sphingomyelin synthase‐related protein via different regions” (FEBS Open Bio, 2023)

Target: T1, Twin‐Strep (TS)‐tagged DGKζ (TS‐DGKζ) (human, UniProt Q13574 1-928)
T1 construct: full-length (FL) DGKζ (DGKζ1, 104 kDa), human; no cleavage is reported and the protein is detected by anti-TS; also called purified DGKζ; source: HEK293 cells, purified (Strep-Tactin XT beads, without detergents); not shown: Twin-Strep, N-terminal, kept
Test: pull-down; purified GST-SMS1-CT or GST-SMSr-NT on glutathione-Sepharose beads, purified Twin-Strep-tagged DGKζ added for 2 h at 4 °C; 20 mM Tris-HCl pH 7.5, 150 mM NaCl, 1 mM EDTA, 0.1% Triton X-100; western blot with anti-GST and anti-TS
Conditions: both partners purified

T1 sequence (Q13574 whole entry): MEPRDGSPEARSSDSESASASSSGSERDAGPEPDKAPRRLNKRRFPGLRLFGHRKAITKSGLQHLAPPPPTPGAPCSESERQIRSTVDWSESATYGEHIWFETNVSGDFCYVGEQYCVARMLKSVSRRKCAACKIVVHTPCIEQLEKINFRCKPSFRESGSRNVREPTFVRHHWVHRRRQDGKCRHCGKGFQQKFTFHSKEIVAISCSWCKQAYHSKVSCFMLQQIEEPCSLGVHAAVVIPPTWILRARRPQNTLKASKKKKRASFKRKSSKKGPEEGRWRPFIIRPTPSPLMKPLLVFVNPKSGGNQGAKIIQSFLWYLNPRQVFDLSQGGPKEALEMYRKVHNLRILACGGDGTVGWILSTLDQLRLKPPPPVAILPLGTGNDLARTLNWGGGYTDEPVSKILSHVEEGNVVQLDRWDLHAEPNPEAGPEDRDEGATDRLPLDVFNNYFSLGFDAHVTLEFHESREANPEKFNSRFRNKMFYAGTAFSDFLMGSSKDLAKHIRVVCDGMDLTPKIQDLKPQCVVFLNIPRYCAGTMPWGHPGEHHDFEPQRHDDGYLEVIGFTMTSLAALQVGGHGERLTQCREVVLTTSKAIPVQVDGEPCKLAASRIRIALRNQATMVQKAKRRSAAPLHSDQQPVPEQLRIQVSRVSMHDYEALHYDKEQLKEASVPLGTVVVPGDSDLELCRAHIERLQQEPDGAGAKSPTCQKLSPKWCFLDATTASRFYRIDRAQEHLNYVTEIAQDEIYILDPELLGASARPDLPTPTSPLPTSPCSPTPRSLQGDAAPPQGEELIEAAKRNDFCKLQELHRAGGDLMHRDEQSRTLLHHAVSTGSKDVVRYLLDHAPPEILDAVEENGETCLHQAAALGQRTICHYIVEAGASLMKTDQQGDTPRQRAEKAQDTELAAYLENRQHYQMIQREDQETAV

binding result | Binder
binds | GST‐SMSr‐NT (domain or fragment, human, UniProt Q96LT4 1-151, looked up, SMSr, N-terminal cytosolic region (contains SAMD); SMSr-NT is defined as aa 1–151; also called GST-fused SMSr‐NT; GST-tagged SMSr‐NT; source: bacterially expressed, purified (glutathione-Sepharose beads); not shown: GST, N-terminal, kept) MAGPNQLCIRRWTTKHVAVWLKDEGFFEYVDILCNKHRLDGITLLTLTEYDLRSPPLEIKVLGDIKRLMLSVRKLQKIHIDVLEEMGYNSDSPMGSMTPFISALQSTDWLCNGELSHDCDGPITDLNSDQYQYMNGKNKHSVRRLDPEYWK
binds | GST‐SMS1‐CT (domain or fragment, human, UniProt Q86VZ5 348-413, looked up, SMS1, C-terminal cytosolic region; SMS1-CT is defined as aa 348–413; also called GST-fused SMS1‐CT; GST-tagged SMS1‐CT; source: bacterially expressed, purified (glutathione-Sepharose beads); not shown: GST, N-terminal, kept) HTMANQQVLKEASQMNLLARVWWYRPFQYFEKNVQGIVPRSYHWPFPWPVVHLSRQVKYSRLVNDT
